Measurements reported in US20220119522A1 (DENALI THERAPEUTICS, published 2022).
No end group written: not given here.

T1: human TREM2 on the cell surface (human, UniProt Q9NZC2 19-230)
T1 sequence: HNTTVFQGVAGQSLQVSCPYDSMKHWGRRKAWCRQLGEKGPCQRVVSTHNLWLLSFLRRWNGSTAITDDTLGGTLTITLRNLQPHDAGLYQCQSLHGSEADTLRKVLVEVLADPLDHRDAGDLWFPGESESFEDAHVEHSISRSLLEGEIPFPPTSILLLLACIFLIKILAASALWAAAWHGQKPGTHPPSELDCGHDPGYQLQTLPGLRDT

T2: human TREM2 full length stalk region peptide (aa 129-172) (human, biotinylated (site not stated))
T2 construct: also called Human TREM2 peptide (aa 129-172); full-length TREM2 stalk peptide
T2 peptide: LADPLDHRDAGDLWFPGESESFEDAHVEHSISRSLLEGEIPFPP

T3: human TREM2 truncated stalk peptide (aa 149-163) (human, also: biotinylated (site not given here))
T3 construct: also called Human TREM2 peptide (aa 149-163); truncated stalk peptide containing the ADAM10/17 cleavage site
T3 peptide: SFEDAHVEHSISRSL

T4: mouse TREM2 full length stalk region peptide (aa 131-169) (mouse, UniProt Q99NH8 131-169, biotinylated (site not stated))
T4 peptide (looked up): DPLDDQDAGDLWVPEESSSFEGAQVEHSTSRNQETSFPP

T5: His-tagged human TREM2 ECD (human, UniProt Q9NZC2 19-172)
T5 construct: Biacore and HDX say only recombinant human TREM2 (ECD); also called recombinant human TREM2; hTREM2
T5 sequence: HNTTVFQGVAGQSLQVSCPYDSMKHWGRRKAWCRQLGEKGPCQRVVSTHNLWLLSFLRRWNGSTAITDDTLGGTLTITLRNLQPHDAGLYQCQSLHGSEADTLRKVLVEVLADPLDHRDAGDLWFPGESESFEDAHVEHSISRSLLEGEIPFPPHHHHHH


Experiments:
[1] = target: T1, human TREM2 on the cell surface; assay: cell-based or functional assay
[2] = target: T2, human TREM2 full length stalk region …; assay: ELISA on biotinylated peptide captured by streptavidin; A450 normalised to isotype control
Method in brief: (§1)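 Sandwich ELISA: biotinylated TREM2 stalk peptides captured on streptavidin-coated plates, antibodies added for 1 h in 1% BSA/PBS, binding detected with anti-human kappa-HRP and TMB at A450. Values expressed as fold over isotype-control background.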

[3] = target: T3, human TREM2 truncated stalk peptide (aa …); assay: as above
Method in brief: as §1

[4] = target: T4, mouse TREM2 full length stalk region …; assay: as above
Method in brief: as §1

[5] = target: T1, human TREM2 on the cell surface; assay: cell binding, human macrophages, dose titration
[6] = target: T6, recombinant cynomolgus TREM2 ECD (cynomolgus); assay: SPR (Biacore), antibody captured via anti-human Fab, recombinant TREM2 ECD injected, 1:1 fit
T6 construct: extracellular domain; also called cyno TREM2
Method in brief: (§2)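 Antibodies captured on a CM5 chip via anti-human Fab, then 3-fold serial dilutions of recombinant human or cynomolgus TREM2 ECD injected at 30 μL/min in HBS-EP+. Association 300 s, dissociation 600+ s, blank-cell subtracted; kon and koff from simultaneous 1:1 Langmuir fit.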

[7] = target: T5, His-tagged human TREM2 ECD; assay: as above
Method in brief: as §2

NFAT EC50 (nM), plate coated mAb [1] [nM]	pSyk activation (human macrophages) EC50 (nM) [1] [nM]	fold over background (A450) [2] [fold]	fold over background (A450) [3] [fold]	fold over background (A450) [4] [fold]	EC50 [5] [nM]	Kd [6] [nM]	Kd [7] [nM]	pSyk activation (HEK293-H6) EC50 (nM) [1] [nM]	Binder	Survival EC50 (nM), plate coated mAb, human macrophages [1] [nM]
30.8	23.8	1.6	1.3	1.4	1.6	0.3	1.6		CL0020139 (antibody, V domains shown, also called Clone CL0020139) VH: EVQLQQSGPELVKPGASVKMSCKAPGYSFTSYLMNWVKQKPGQGLEWIGYINPYSAGSNYNEKFKDKATLTSDKSSSTAYMELRSLTSEDSAVYFCARSSYRYGFDYWGQGTTLTVSS VL: DIQMTQSSSSFSVSLGDRVTITCKASEDIYNRLAWYQQKPGNAPRLLISGATSLETGVPSRFSGSGSGKDYTLSITSLQTEDVATYSCQQYWSTPWTFGGGTKLEIK	1.8
		11	1.2	1	0.05	56.9	0.33	18.8	CL0020314 (antibody, V domains shown, also called Clone CL0020314) VH: DVKLVESGGGLVKLGGSLKLSCAASGFTFSSYYMSWVRQTPEKRLELVAAINTNGGRTYYPDTVKGRFTISRDNAKNTLYLQMSSLKSEDTALYYCARESDGGAFAYWGQGTLVTVSA VL: DVVMTQTPLSLPVSLGDQASISCRSSQSLVHSNGNTYLHWYLQKPGQSPKLLIYKVSNRFSGVPDRFSGSGSGTDFTLKISRVEAEDLGVYFCSQNTHVPLTFGAGTKLELK	1.6
72.7		8.7	1.3	6.8	5.6	2.52	0.0259		CL0020315 (antibody, V domains shown, also called Clone CL0020315) VH: EVQLQQSGPELVKPGASVKISCKASGYTFTDYNIHWVKQSHGKSLEWIGYIYPYNGVTGYNQKFKSKATLTVDNSSSTAYMELRSLTSEDSAVYYCARSRVDGDYWGQGTTLTVSS VL: DVVMTQTPLSLPVSLGDQASISCRSSQSLVHSNGNTYLHWYLQKPGQSPKLLIYKISNRFSGVPDRFSGSGSGTDFTLKISRVEAEDLGVYFCSQSTHVPLTFGAGTKLELK	10.1
